Positions count from the first letter of the chain named.

Sequences and labels used below:
T1: recombinant human IL-25 protein (human, UniProt Q9H293 33-177)
T1 sequence: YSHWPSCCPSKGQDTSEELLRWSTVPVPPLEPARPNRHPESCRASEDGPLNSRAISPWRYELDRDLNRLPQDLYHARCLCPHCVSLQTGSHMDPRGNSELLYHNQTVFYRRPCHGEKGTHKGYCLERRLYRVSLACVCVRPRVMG

T2: recombinant cynomolgus IL-25 protein (cynomolgus monkey, UniProt Q9H293 33-177 (human entry), limits assumed)
T2 construct: Bought (Sino Biological Inc, customized order); also called cyno IL-25
T2 chain: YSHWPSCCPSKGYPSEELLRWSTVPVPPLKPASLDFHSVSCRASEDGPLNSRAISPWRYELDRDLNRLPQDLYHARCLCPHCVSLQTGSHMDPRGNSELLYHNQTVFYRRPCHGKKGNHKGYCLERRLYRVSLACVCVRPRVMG

T3: recombinant mouse IL-25 protein (mouse, UniProt Q8VHH8 17-169)
T3 construct: Bought (Sino Biological Inc, catalog no: 50138-M07H)
T3 sequence: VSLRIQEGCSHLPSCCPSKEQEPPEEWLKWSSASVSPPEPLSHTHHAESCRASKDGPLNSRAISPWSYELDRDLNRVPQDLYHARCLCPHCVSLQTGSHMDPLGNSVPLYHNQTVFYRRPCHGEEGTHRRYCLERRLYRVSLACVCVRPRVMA

B1: IL25Ab7 (antibody, IgG1, V domains shown)
VH: QVQLVQSGAEVKKPGASVKVSCKASGYSFTGYTMNWVRQAPGQGLEWMGLINPDNGGTSYKQKFQGRVTMTVDKSISTAYMELSRLRSDDTAVYYCAREGYYGPSPFHHYAMDYWGQGTLVTVSS
VL: DIQMTQSPSSLSASVGDRVTITCQASQDISNYLNWYQQKPDGTIKLLIYYTSTLHTGVPSRFSGSGSGTDYTFTISSLQPEDIATYYCQQYSKLPYTFGQGTKLEIK
B2: IL25Ab10 (antibody, V domains shown)
VH: B1 VH
VL: B1 VL
B3: IL25Ab9 (antibody, V domains shown)
VH: B1 VH
VL: B1 VL with D41G, G42K, T43A, I44P
B4: IL25Ab8 (antibody, IgG1, V domains shown)
VH: B1 VH with P41H, Q43K, G44N, Y60H
VL: B1 VL with F73L, Q100G
B5: IL25Ab11 (antibody, IgG1, V domains shown)
VH: B1 VH with P41H, Q43K, G44N, Y60H
VL: B1 VL with F73L, Q100G
B6: IL25Ab6 (antibody, V domains shown)
VH: B1 VH
VL: B1 VL with D41G, G42K, T43A, I44P
B7: IL25Ab7 Fab (Fab, V domains shown)
VH: B1 VH
VL: B1 VL
notes: VH/VL assigned as for IL25Ab7
B8: IL25Ab6 Fab (Fab, V domains shown)
VH: B1 VH
VL: B1 VL with D41G, G42K, T43A, I44P
B9: IL25Ab8 Fab (Fab, V domains shown)
VH: B1 VH with P41H, Q43K, G44N, Y60H
VL: B1 VL with F73L, Q100G
notes: VH/VL assigned as for IL25Ab8
B10: IL25Ab3 Fab (Fab, V domains shown)
VH: EVQLQQSGPELVKPGGSVRISCKASGYSFTGYTMNWVKQSHGKNLEWIGLINPDNGGTSHKQRFMGKATLTVDKSSSTAYMELLSLTSEDSAVYYCAREGYYGPSPFHHYAMDYWGQGTSVTVSS
VL: DIQMTQTTSSLSASLGDRVTISCSASQDISNYLNWYQQKPDGTIKLLIYYTSTLHSGVPSRFSGSGSGTDYSLTISNLEPEDIATYYCQQYSKLPYTFGGGTKLEIK
notes: VH/VL assigned as for IL25Ab3; also called murine parental Fab

One assay has as its target T1, recombinant human IL-25 protein. In words: cell-based or functional assay.
Turning to B1, the “IC50, IL-25 induced CXCL1 production in HT-29 cells” value (“IC50 … in HT-29 cells” below) stood at 0.183 nM.
In the case of B2, the “IC50 … in HT-29 cells” value stood at 0.198 nM.
B3: the “IC50 … in HT-29 cells” value came to 0.225 nM.
For B4, the “IC50 … in HT-29 cells” value stood at 0.199 nM.
For the molecule B5, the “IC50 … in HT-29 cells” value was found to be 0.187 nM.
Take B6: the “IC50 … in HT-29 cells” value is 0.225 nM.

The target is the same in the next assay. The assay can be described thus: BLI, Fab; species of IL-25 not stated, taken as human. For orientation: In BLI a coated tip is dipped into the sample, and binding shifts an interference pattern.
As usually defined, the Kd is the concentration at which binding is half-saturated. One may read the koff as a measure of how fast the partners let go of each other. One may read the kon as the second-order rate constant of association. In the case of B7, the Kd is 1.8 nM, the koff turned out to be 0.00029 s⁻¹ and the kon came to 161000 M⁻¹ s⁻¹.
B8: the dissociation constant (Kd) stood at 1.86 nM, the koff turned out to be 0.000249 s⁻¹ and the kon worked out at 134000 M⁻¹ s⁻¹.
Turning to B9, the Kd was determined as 1.78 nM, the koff stood at 0.000251 s⁻¹ and the on-rate (kon) was 141000 M⁻¹ s⁻¹.
For the molecule B10, the Kd amounted to 1.89 nM, the koff is 0.000285 s⁻¹ and the kon amounted to 150000 M⁻¹ s⁻¹.

The target is the same in another assay. The assay can be described thus: cell-based or functional assay. This is another data set of the same source.
For the molecule B1, the “IC50, IL-25 induced NF-kB signaling (SEAP) in HEK-Blue IL-17 reporter cells” value (“IC50, IL-25 induced NF-kB signaling” below) came to 0.042 nM.
With B2, the “IC50, IL-25 induced NF-kB signaling” value came out at 0.052 nM.
Still for that read-out and setting: the value for B3 was 0.043 nM.
As to B4, the “IC50, IL-25 induced NF-kB signaling” value is 0.041 nM.
Consider B5, for which the “IC50, IL-25 induced NF-kB signaling” value was 0.037 nM.
B6: the “IC50, IL-25 induced NF-kB signaling” value amounted to 0.048 nM.

Another assay shares this target. The assay can be described thus: cell-based or functional assay. This is another data set of the same source.
B1: the “IC50, IL-25 induced IL-5 production in human PBMC” value (“IC50 … in human PBMC” for short) came to 0.85 nM.
Take B2: the “IC50 … in human PBMC” value is 1.43 nM.
For B3, the “IC50 … in human PBMC” value is 0.435 nM.
On to B4, for which the “IC50 … in human PBMC” value was determined as 1.04 nM.
Regarding B5, the “IC50 … in human PBMC” value is 0.953 nM.
Take B6: the “IC50 … in human PBMC” value was found to be 0.381 nM.

A further assay concerns the target T2, recombinant cynomolgus IL-25 protein. The assay can be described thus: ELISA, IL-25 coated, goat anti-human kappa light chain-HRP detection. On the procedure: (§1) In this study, the ability of three humanized anti-IL-25 antibodies generated in hIgG1 (IL25Ab6 to Ab8) and hIgG1 YTE formats (IL25Ab9 to Ab11) binding to both human, mouse and cynomolgus IL-25 was evaluated using ELISA. Briefly, recombinant human IL-25 protein (Acro, catalog no: IL5-H4221, lot no: 401-20CNF1-UT), recombinant mouse IL-25 protein (Sino Biological Inc, catalog no: 50138-M07H, lot no: LC15AP0607) or recombinant cynomolgus IL-25 protein (Sino Biological Inc, catalog no: customized order, lot no: MB17MA2715) was directly coated to ELISA plates, respectively. Recombinant antibodies were then added to the plates followed by detection using goat-anti-human Kappa Light Chain antibody HRP (Novus, catalog no: NBP1-75064, Lot no: 68-188-010920). After the addition of ABTS (Moss Inc., catalog no: ABTS-1000, Lot no: 03086202) substrate, ELISA plates were read using an ELISA plate reader (Bioteck).
A word on the EC50: it is the concentration needed to bring the measured effect to its halfway point. In the case of B1, the EC50 is 0.245 nM.
Still for that read-out and setting: the value for B2 was 0.266 nM; that for B3 was 0.222 nM; that for B4 was 0.295 nM.
For the molecule B5, the EC50 is 0.239 nM.
For B6, the EC50 amounted to 0.241 nM.

In a further assay the target is T3, recombinant mouse IL-25 protein. The description is as above. On the procedure: as §1
Take B1: the EC50 stood at 0.243 nM.
The same measure, in the same setting: the value for B2 was 0.284 nM; that for B3 was 0.232 nM; that for B4 was 0.332 nM.
With B5, the EC50 worked out at 0.258 nM.
With B6, the EC50 came out at 0.242 nM.

Another assay concerns the target T1, recombinant human IL-25 protein. The description is as above. On the procedure:
as §1
In the case of B1, the EC50 worked out at 0.327 nM.
Take B2: the EC50 amounted to 0.364 nM.
On the same count and under the same terms, the value for B3 was 0.312 nM; that for B4 was 0.404 nM.
For the molecule B5, the EC50 came to 0.318 nM.
As to B6, the EC50 worked out at 0.302 nM.
